Results: ChEMBL document CHEMBL5108047

Assays:
[1] = system: CN(C(=S)Cn1nc2c(c1C(F)(F)F)CCC2)c1ccccc1; details: Homo sapiens; dose 30.0 nM
Description: Inhibition of human DNA polymerase theta assessed as substrate Vmax using dNTP as substrate at 30 nM

[2] = system: CN(C(=S)Cn1nc2c(c1C(F)(F)F)CCC2)c1ccccc1; details: Homo sapiens; dose 30.0 nM; remark: listed apart in the source
Description: Inhibition of human DNA polymerase theta assessed as substrate Km using dNTP as substrate at 30 nM

[3] = system: CN(C(=S)Cn1nc2c(c1C(F)(F)F)CCC2)c1ccccc1; details: Homo sapiens; dose 20.0 nM
[4] = system: CN(C(=S)Cn1nc2c(c1C(F)(F)F)CCC2)c1ccccc1; details: Homo sapiens; dose 20.0 nM; remark: listed apart in the source
[5] = system: CN(C(=S)Cn1nc2c(c1C(F)(F)F)CCC2)c1ccccc1; details: Homo sapiens; dose 40.0 nM
[6] = system: CN(C(=S)Cn1nc2c(c1C(F)(F)F)CCC2)c1ccccc1; details: Homo sapiens; dose 5.0 nM
Description: Inhibition of human DNA polymerase theta assessed as substrate Vmax using dNTP as substrate at 5 nM

[7] = system: CN(C(=S)Cn1nc2c(c1C(F)(F)F)CCC2)c1ccccc1; details: Homo sapiens; dose 5.0 nM; remark: listed apart in the source
Description: Inhibition of human DNA polymerase theta assessed as substrate Km using dNTP as substrate at 5 nM

[8] = system: CN(C(=S)Cn1nc2c(c1C(F)(F)F)CCC2)c1ccccc1; details: Homo sapiens; dose 2.5 nM
Description: Inhibition of human DNA polymerase theta assessed as substrate Vmax using dNTP as substrate at 2.5 nM

[9] = system: CN(C(=S)Cn1nc2c(c1C(F)(F)F)CCC2)c1ccccc1; details: Homo sapiens; dose 10.0 nM
[10] = system: CN(C(=S)Cn1nc2c(c1C(F)(F)F)CCC2)c1ccccc1; details: Homo sapiens; dose 2.5 nM; remark: listed apart in the source
Description: Inhibition of human DNA polymerase theta assessed as substrate Km using dNTP as substrate at 2.5 nM

[11] = system: CN(C(=S)Cn1nc2c(c1C(F)(F)F)CCC2)c1ccccc1; details: Homo sapiens; dose 10.0 nM; remark: listed apart in the source
[12] = system: CN(C(=S)Cn1nc2c(c1C(F)(F)F)CCC2)c1ccccc1; details: Homo sapiens; dose 40.0 nM; remark: listed apart in the source

“DNA polymerase theta (Homo sapiens), O75417” gave a Vmax [1] of 15.2 µM/min, a Km [2] of 112 µM and a Km [3] of 57 µM. The Vmax [4] was 21.8 µM/min, the Km [5] was 39.5 µM and the Vmax [6] was 51.3 µM/min. The Km [7] was 36.6 µM, the Vmax [8] was 51.2 µM/min and the Vmax [9] was 25.5 µM/min. The Km [10] was 25.2 µM, the Km [11] was 24 µM and the Vmax [12] was 6.45 µM/min.
